Drawing on the Immune Epitope Database (IEDB), this text covers Kd and IC50 for 13 sequences.

In assay [1] the target is HLA-A*24:02. Briefly: IEDB peptide-MHC binding, purified MHC/competitive/fluorescence; filed as Kd, often an IC50 or EC50 that approximates it; ≥ and ≤ were set here for values at or beyond the usual limits of such assays.
Another assay addresses HLA-C*06:02. Nature of the assay: IEDB peptide-MHC binding, purified MHC/direct/fluorescence; filed as Kd, often an IC50 or EC50 that approximates it; ≥ and ≤ were set here for values at or beyond the usual limits of such assays. As to conditions: source organism: Listeria monocytogenes J0161.
A further assay addresses HLA-C*03:03. Described as above. As to conditions: source organism: Mycobacterium tuberculosis variant bovis BCG str. Pasteur 1173P2.
For a further assay, the target named is HLA-C*08:02. Described as above.
The target of another assay is HLA-C*12:03. The description is as above. As to conditions: source organism: Mycobacterium tuberculosis variant bovis BCG str. Pasteur 1173P2.
The target in another assay is HLA-A*69:01. The description is as above.
Another assay addresses HLA-A*24:03. The assay is described as above. As to conditions: source organism: Orthohantavirus dobravaense.
For a further assay, the target named is HLA-C*04:01. The assay is described as above. As to conditions: source organism: Kurkino virus.
A further assay concerns the target HLA-A*30:01. Described as above. The settings on record: source organism: Kurkino virus.
Another assay addresses HLA-A*23:01. Described as above. As to conditions: source organism: Orthohantavirus dobravaense.
The target in a further assay is HLA-A*02:11. The description is as above. As to conditions: source organism: Brucella suis ATCC 23445.
Another assay concerns the target HLA-B*58:01. The assay is described as above. As to conditions: source organism: Brucella abortus.
A further assay deals with HLA-A*02:12. Described as above.
The next assay addresses HLA-A*02:06. Described as above.
Assay [2] addresses HLA-B*15:01. Described as above. As to conditions: source organism: Brucella abortus.
The target of a further assay is HLA-A*02:19. The description is as above.
In the next assay the target is HLA-B*27:05. Described as above. The settings on record: source organism: Brucella abortus.
The target of a further assay is HLA-B*44:02. Described as above. As to conditions: source organism: Brucella abortus.
A further assay deals with HLA-A*02:03. Described as above. The settings on record: source organism: Brucella suis ATCC 23445.
Assay [3] deals with HLA-A*02:01. The assay is described as above.
The next assay deals with HLA-A*31:01. Described as above. The settings on record: source organism: Brucella abortus.
The next assay addresses HLA-B*07:02. The description is as above. As to conditions: source organism: Brucella abortus.
Assay [4] concerns the target HLA-A*01:01. The assay is described as above.
The target of the next assay is HLA-A*03:01. The description is as above. The settings on record: source organism: Brucella abortus.
The target in assay [5] is HLA-B*46:01. The description is as above. The settings on record: source organism: Brucella abortus.
The target of the next assay is HLA-B*40:01. The description is as above. As to conditions: source organism: Brucella abortus.
In the next assay the target is HLA-A*11:01. Described as above. The settings on record: source organism: Brucella abortus.
The target in a further assay is HLA-C*05:01. Described as above. As to conditions: source organism: Brucella melitensis bv. 1 str. 16M.
Assay [6] concerns the target HLA-A*01:01. Briefly: IEDB peptide-MHC binding, purified MHC/competitive/fluorescence; filed as Kd, often an IC50 or EC50 that approximates it; ≥ and ≤ were set here for values at or beyond the usual limits of such assays. The settings on record: source organism: Human immunodeficiency virus type 1 BH10.
The target of a further assay is HLA-A*29:02. The description is as above. As to conditions: source organism: Human immunodeficiency virus type 1 BH10.
The target in another assay is HLA-A*80:01. Nature of the assay: IEDB peptide-MHC binding, purified MHC/direct/fluorescence; filed as Kd, often an IC50 or EC50 that approximates it; ≥ and ≤ were set here for values at or beyond the usual limits of such assays.
For the next assay, the target named is HLA-A*02:16. The assay is described as above. The settings on record: source organism: Brucella suis 1330.
In assay [7] the target is HLA-B*08:01. Briefly: IEDB peptide-MHC binding, purified MHC/competitive/fluorescence; filed as Kd, often an IC50 or EC50 that approximates it; ≥ and ≤ were set here for values at or beyond the usual limits of such assays. As to conditions: source organism: Influenza A virus (A/Harbin/1/1988(H1N2)).
Assay [8] has as its target HLA-A*24:02. Nature of the assay: IEDB peptide-MHC binding, purified MHC/competitive/fluorescence; ≥ and ≤ were set here for values at or beyond the usual limits of such assays.
Assay [9] addresses HLA-B*08:01. The assay is described as above.
A further assay concerns the target HLA-B*35:01. Nature of the assay: IEDB peptide-MHC binding, purified MHC/competitive/fluorescence; filed as Kd, often an IC50 or EC50 that approximates it; ≥ and ≤ were set here for values at or beyond the usual limits of such assays. As to conditions: source organism: Mopeia Lassa virus reassortant 29.
Assay [10] addresses HLA-B*46:01. The description is as above. As to conditions: source organism: Mopeia Lassa virus reassortant 29.
Assay [11] concerns the target HLA-B*15:01. Nature of the assay: IEDB peptide-MHC binding, purified MHC/competitive/fluorescence; ≥ and ≤ were set here for values at or beyond the usual limits of such assays. The settings on record: source organism: Zaire ebolavirus.
Assay [12] deals with HLA-A*02:01. The description is as above. The settings on record: source organism: Zaire ebolavirus.
The mark [13] stands for this setting: source organism: Brucella suis ATCC 23445.
The mark [14] stands for this setting: source organism: Brucella abortus.
Where [15] appears, read: source organism: Brucella suis 1330.
[16] abbreviates: source organism: Vaccinia virus Copenhagen.
Where [17] appears, read: source organism: Mammarenavirus lassaense.
Setting [18] is: source organism: Zaire ebolavirus.
The mark [19] stands for this setting: source organism: Vaccinia virus.

YYVWMVQFF: the Kd is 0.0002 µM with HLA-A*24:02 [1] (source organism: Listeria monocytogenes J0161) and no less than 20 µM with HLA-C*06:02.
In turn, IFIYSFFTW gave a Kd with HLA-A*24:02 [1] (source organism: Francisella tularensis subsp. holarctica FSC200) of 0.0111 µM. That is a double-digit nanomolar value.
On to FLADYGWRL, for which the Kd was determined as 0.026 µM with HLA-C*03:03, 0.057 µM with HLA-C*08:02 (source organism: Mycobacterium tuberculosis variant bovis BCG str. Pasteur 1173P2), 0.413 µM in the assay with HLA-C*12:03 and 0.663 µM with HLA-A*69:01 (source organism: Mycobacterium tuberculosis).
In the case of YYTEDQGQF, the Kd in the assay with HLA-A*24:03 was 0.0014 µM; in the assay with HLA-C*04:01 it was no less than 20 µM; in the assay with HLA-A*30:01, no less than 20 µM; with HLA-A*23:01 it was 0.0135 µM.
For LSDDSGLMV, the Kd with HLA-A*02:11 was 0.071 µM; with HLA-B*58:01 it was no less than 20 µM; with HLA-A*02:12 (setting [13]), 1.58 µM; with HLA-A*02:06 (setting [13]) it was 0.062 µM; in the assay with HLA-B*15:01 [2], no less than 20 µM; in the assay with HLA-A*02:19 (setting [13]), no less than 20 µM. The Kd with HLA-B*27:05 was no less than 20 µM; in the assay with HLA-B*44:02 it was no less than 20 µM; with HLA-A*02:03 it was 0.42 µM; in the assay with HLA-A*02:01 [3] (setting [14]), 1.05 µM; with HLA-A*31:01, no less than 20 µM; in the assay with HLA-B*07:02, no less than 20 µM. Besides, the Kd with HLA-A*01:01 [4] (setting [14]) was 0.0217 µM; with HLA-A*03:01 it was no less than 20 µM; with HLA-B*46:01 [5] it was no less than 20 µM; with HLA-B*40:01, no less than 20 µM; with HLA-A*11:01, no less than 20 µM; with HLA-C*05:01 it was 0.007 µM.
Regarding FNCGGEFFY, the Kd in the assay with HLA-A*01:01 [6] was 0.0565 µM; with HLA-A*29:02 it was no more than 0.0001 µM; in the assay with HLA-A*80:01 (source organism: Human immunodeficiency virus 1), 0.0526 µM.
On to MRDGGSATV, for which the Kd with HLA-A*02:12 (setting [15]) is no less than 20 µM; with HLA-A*02:06 (setting [15]), no less than 10 µM; with HLA-A*02:19 (setting [15]) it was no less than 20 µM; in the assay with HLA-A*02:16 it was no less than 10 µM; with HLA-A*02:01 [3] (source organism: Brucella suis), no less than 20 µM; with HLA-A*69:01 (setting [15]) it was no less than 20 µM.
Regarding IAPWYAFAL, the results for the Kd with HLA-B*08:01 [7] and in the assay with HLA-C*08:02 (source organism: Influenza A virus (A/Harbin/1/1988(H1N2))) were 7.56 µM and 3.34 µM, respectively.
For YQGKFYMPF, the Kd with HLA-A*24:02 [1] (source organism: Yersinia pestis Nepal516) was 0.0003 µM. This lies in the sub-nanomolar range.
Consider GNIKHKERI, for which the IC50 is 47.7 µM with HLA-A*24:02 [8] (setting [16]) and no less than 199 µM in the assay with HLA-B*08:01 [9] (setting [16]).
YSQESPQSY: the Kd with HLA-B*35:01 is 0.044 µM; with HLA-B*46:01 [10] it was 0.842 µM; with HLA-A*80:01 (setting [17]), no less than 20 µM; in the assay with HLA-A*01:01 [4] (setting [17]) it was 0.0011 µM.
HMMVIFRLM: the IC50 is no less than 168 µM with HLA-B*15:01 [11], 0.83 µM with HLA-A*24:02 [8] (setting [18]), 0.176 µM in the assay with HLA-A*02:01 [12] and no less than 3440 µM with HLA-B*08:01 [9] (setting [18]).
In the case of FKPPKFRAF, the IC50 with HLA-A*24:02 [8] (setting [19]) was 52.6 µM; in the assay with HLA-B*08:01 [9] (setting [19]) it was no less than 191 µM.
